# Results from patent publication US20160319321.
# Changes are numbered by the printed parent chain. Names and notes keep the numbering of the source. Values joined by “and” are separate entries in the source; they are usually repeats but may differ in a detail not shown here. Identical values can stand only once.
# T1: Lys(Dnp)-EGGDR-HAEGT-Lys(Abz)amide
# T1 chain: KEGGDRHAEGTK
# T2: Lys(Dnp)-QEGDR-HGEGT-Lys(Abz)amide
# T2 chain: KQEGDRHGEGTK
# T3: Lys(Dnp)-EEGDR-HGEGT-Lys(Abz)amide
# T3 chain: KEEGDRHGEGTK
# T4: Lys(Dnp)-VEGDR-HAEGT-Lys(Abz)amide
# T4 chain: KVEGDRHAEGTK
# T5: Lys(Dnp)-MDEGDR-HAEGT-Lys(Abz)amide
# T5 chain: KMDEGDRHAEGTK
# T6: DVKEGQPLYDDDDK-[Arg34]GLP-1(9-37)
# T6 chain: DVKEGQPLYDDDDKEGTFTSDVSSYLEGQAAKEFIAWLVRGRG
# T7: Lys(Dnp)-EYGDR-HGEGT-Lys(Abz)amide
# T7 chain: KEYGDRHGEGTK
# T8: Lys(Dnp)-EYGDR-EGTFT-Lys(Abz)amide
# T8 chain: KEYGDREGTFTK
# T9: Lys(Dnp)-KDEGDR-HAEGT-Lys(Abz)amide
# T9 chain: KKDEGDRHAEGTK
# T10: Lys(Dnp)-DLGDR-EGTFT-Lys(Abz)amide
# T10 chain: KDLGDREGTFTK
# T11: DVKEGQPLYDEGDR-[Arg34]GLP-1(9-37)
# T11 chain: T6 chain with D11E, D12G, K14R
# T12: Lys(Dnp)-EDGDR-EGTFT-Lys(Abz)amide
# T12 chain: KEDGDREGTFTK
# T13: Lys(Dnp)-ESGDR-HAEGT-Lys(Abz)amide
# T13 chain: KESGDRHAEGTK
# T14: DVKPEQPLYDDDDK-[Arg34]GLP-1(9-37)
# T14 chain: T6 chain with E4P, G5E
# T15: Lys(Dnp)-DLGDR-HSQGT-Lys(Abz)amide
# T15 chain: KDLGDRHSQGTK
# T16: Lys(Dnp)-EYGDR-HAEGT-Lys(Abz)amide
# T16 chain: KEYGDRHAEGTK
# T17: Lys(Dnp)-EQGDR-HGEGT-Lys(Abz)amide
# T17 chain: KEQGDRHGEGTK
# T18: Lys(Dnp)-HEGDR-HAEGT-Lys(Abz)amide
# T18 chain: KHEGDRHAEGTK
# T19: Lys(Dnp)-INDDRHAEGT-Lys(Abz)amide
# T19 chain: XINDDRHAEGTX
# T20: Lys(Dnp)-PDEGDR-HAEGT-Lys(Abz)amide
# T20 chain: KPDEGDRHAEGTK
# T21: Lys(Dnp)-DEGDR-HGEGT-Lys(Abz)amide
# T21 chain: KDEGDRHGEGTK
# T22: Lys(Dnp)-DWGDR-HAEGT-Lys(Abz)amide
# T22 chain: KDWGDRHAEGTK
# T23: Lys(Dnp)-DLGDR-HGTFT-Lys(Abz)amide
# T23 chain: KDLGDRHGTFTK
# T24: Lys(Dnp)-DEGDR-QGTFT-Lys(Abz)amide
# T24 chain: KDEGDRQGTFTK
# T25: Lys(Dnp)-ELGDR-HGEGT-Lys(Abz)amide
# T25 chain: KELGDRHGEGTK
# T26: Lys(Dnp)-EQGDR-EGTFT-Lys(Abz)amide
# T26 chain: KEQGDREGTFTK
# T27: Lys(Dnp)-RDEGDR-HAEGT-Lys(Abz)amide
# T27 chain: KRDEGDRHAEGTK
# T28: Lys(Dnp)-EAGDR-HGEGT-Lys(Abz)amide
# T28 chain: KEAGDRHGEGTK
# T29: Lys(Dnp)-EAGDR-HAEGT-Lys(Abz)amide
# T29 chain: KEAGDRHAEGTK
# T30: Lys(Dnp)-GDEGDR-HAEGT-Lys(Abz)amide
# T30 chain: KGDEGDRHAEGTK
# T31: Lys(Dnp)-EQGDR-HAEGT-Lys(Abz)amide
# T31 chain: KEQGDRHAEGTK
# T32: Lys(Dnp)-QEGDR-EGTFT-Lys(Abz)amide
# T32 chain: KQEGDREGTFTK
# T33: Lys(Dnp)-TDEGDR-HAEGT-Lys(Abz)amide
# T33 chain: KTDEGDRHAEGTK
# T34: Lys(Dnp)-NEDGDR-HAEGT-Lys(Abz)amide (not fully specified)
# T34 chain: KNEDGDRHAEGTK
# T35: Lys(Dnp)-DFGDR-HAEGT-Lys(Abz)amide
# T35 chain: KDFGDRHAEGTK
# T36: Lys(Dnp)-DEGDR-HSQGT-Lys(Abz)amide
# T36 chain: KDEGDRHSQGTK
# T37: DVKPGQPLYDEGDR-[Arg34]GLP-1(9-37)
# T37 chain: T6 chain with E4P, D11E, D12G, K14R
# T38: Lys(Dnp)-DDGDR-HAEGT-Lys(Abz)amide
# T38 chain: KDDGDRHAEGTK
# T39: Lys(Dnp)-DEGDR-HGTFT-Lys(Abz)amide
# T39 chain: KDEGDRHGTFTK
# T40: Lys(Dnp)-DYGDR-HGEGT-Lys(Abz)amide
# T40 chain: KDYGDRHGEGTK
# T41: Lys(Dnp)-WDEGDR-HAEGT-Lys(Abz)amide
# T41 chain: KWDEGDRHAEGTK
# B1: bovine Enterokinase light chain variant (C112A, L134K, I135K) (protein)
# chain: IVGGSDSREGAWPWVVALYFDDQQVCGASLVSRDWLVSAAHCVYGRNMEPSKWKAVLGLHMASNLTSPQIETRLIDQIVINPHYNKRRKNNDIAMMHLEMKVNYTDYIQPIALPEENQVFPPGRICSIAGWGAKKYQGSTADVLQEADVPLLSNEKCQQQMPEYNITENMVCAGYEAGGVDSCQGDSGGPLMCQENNRWLLAGVTSFGYQCALPNRPGVYARVPRFTEWIQSFLH
# Experiments:
# [1] = molecular target: T1, Lys(Dnp)-EGGDR-HAEGT-Lys(Abz)amide
# [2] = molecular target: T2, Lys(Dnp)-QEGDR-HGEGT-Lys(Abz)amide
# [3] = molecular target: T3, Lys(Dnp)-EEGDR-HGEGT-Lys(Abz)amide
# [4] = molecular target: T4, Lys(Dnp)-VEGDR-HAEGT-Lys(Abz)amide
# [5] = molecular target: T5, Lys(Dnp)-MDEGDR-HAEGT-Lys(Abz)amide
# [6] = molecular target: T6, DVKEGQPLYDDDDK-[Arg34]GLP-1(9-37)
# [7] = molecular target: T7, Lys(Dnp)-EYGDR-HGEGT-Lys(Abz)amide
# [8] = molecular target: T8, Lys(Dnp)-EYGDR-EGTFT-Lys(Abz)amide
# [9] = molecular target: T9, Lys(Dnp)-KDEGDR-HAEGT-Lys(Abz)amide
# [10] = molecular target: T10, Lys(Dnp)-DLGDR-EGTFT-Lys(Abz)amide
# [11] = molecular target: T11, DVKEGQPLYDEGDR-[Arg34]GLP-1(9-37)
# [12] = molecular target: T12, Lys(Dnp)-EDGDR-EGTFT-Lys(Abz)amide
# [13] = molecular target: T13, Lys(Dnp)-ESGDR-HAEGT-Lys(Abz)amide
# [14] = molecular target: T14, DVKPEQPLYDDDDK-[Arg34]GLP-1(9-37)
# [15] = molecular target: T15, Lys(Dnp)-DLGDR-HSQGT-Lys(Abz)amide
# [16] = molecular target: T16, Lys(Dnp)-EYGDR-HAEGT-Lys(Abz)amide
# [17] = molecular target: T17, Lys(Dnp)-EQGDR-HGEGT-Lys(Abz)amide
# [18] = molecular target: T18, Lys(Dnp)-HEGDR-HAEGT-Lys(Abz)amide
# [19] = molecular target: T19, Lys(Dnp)-INDDRHAEGT-Lys(Abz)amide
# [20] = molecular target: T20, Lys(Dnp)-PDEGDR-HAEGT-Lys(Abz)amide
# [21] = molecular target: T21, Lys(Dnp)-DEGDR-HGEGT-Lys(Abz)amide
# [22] = molecular target: T22, Lys(Dnp)-DWGDR-HAEGT-Lys(Abz)amide
# [23] = molecular target: T23, Lys(Dnp)-DLGDR-HGTFT-Lys(Abz)amide
# [24] = molecular target: T24, Lys(Dnp)-DEGDR-QGTFT-Lys(Abz)amide
# [25] = molecular target: T25, Lys(Dnp)-ELGDR-HGEGT-Lys(Abz)amide
# [26] = molecular target: T26, Lys(Dnp)-EQGDR-EGTFT-Lys(Abz)amide
# [27] = molecular target: T27, Lys(Dnp)-RDEGDR-HAEGT-Lys(Abz)amide
# [28] = molecular target: T28, Lys(Dnp)-EAGDR-HGEGT-Lys(Abz)amide
# [29] = molecular target: T29, Lys(Dnp)-EAGDR-HAEGT-Lys(Abz)amide
# [30] = molecular target: T30, Lys(Dnp)-GDEGDR-HAEGT-Lys(Abz)amide
# [31] = molecular target: T31, Lys(Dnp)-EQGDR-HAEGT-Lys(Abz)amide
# [32] = molecular target: T32, Lys(Dnp)-QEGDR-EGTFT-Lys(Abz)amide
# [33] = molecular target: T33, Lys(Dnp)-TDEGDR-HAEGT-Lys(Abz)amide
# [34] = molecular target: T34, Lys(Dnp)-NEDGDR-HAEGT-Lys(Abz)amide
# [35] = molecular target: T35, Lys(Dnp)-DFGDR-HAEGT-Lys(Abz)amide
# [36] = molecular target: T36, Lys(Dnp)-DEGDR-HSQGT-Lys(Abz)amide
# [37] = molecular target: T37, DVKPGQPLYDEGDR-[Arg34]GLP-1(9-37)
# [38] = molecular target: T38, Lys(Dnp)-DDGDR-HAEGT-Lys(Abz)amide
# [39] = molecular target: T39, Lys(Dnp)-DEGDR-HGTFT-Lys(Abz)amide
# [40] = molecular target: T40, Lys(Dnp)-DYGDR-HGEGT-Lys(Abz)amide
# [41] = molecular target: T41, Lys(Dnp)-WDEGDR-HAEGT-Lys(Abz)amide
protein,measurement,setting,value
B1,Activity (%),[1],586%
same,Activity (%),[2],275%
same,Activity (%),[3],641%
same,Activity (%),[4],388%
same,Activity (%),[5],209%
same,Activity (%),[6],178%
same,Activity (%),[7],338%
same,Activity (%),[8],353%
same,Activity (%),[9],175%
same,Activity (%),[10],438%
same,Activity (%),[11],913%
same,Activity (%),[12],505%
same,Activity (%),[13],557%
same,Activity (%),[14],167%
same,Activity (%),[15],268%
same,Activity (%),[16],539%
same,Activity (%),[17],432%
same,Activity (%),[18],468%
same,Activity (%),[19],126%
same,Activity (%),[20],194%
same,Activity (%),[21],736%
same,Activity (%),[22],513%
same,Activity (%),[23],216%
same,Activity (%),[24],411%
same,Activity (%),[25],502%
same,Activity (%),[26],442%
same,Activity (%),[27],222%
same,Activity (%),[28],275%
same,Activity (%),[29],582%
same,Activity (%),[30],267%
same,Activity (%),[31],808%
same,Activity (%),[32],411%
same,Activity (%),[33],237%
same,Activity (%),[34],114%
same,Activity (%),[35],550%
same,Activity (%),[36],621%
same,Activity (%),[37],707%
same,Activity (%),[38],604% and 601%
same,Activity (%),[39],392%
same,Activity (%),[40],469%
same,Activity (%),[41],181%
